Measured values published in the supplement of paper PMC9170038.

Test system: MS2 coat protein
Test: apparent KD of MS2 coat protein; designed switch direction (-1 OFF switch, 1 ON switch): -1; higher = weaker reporter binding
In short: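 RNA switches sharing common flanks were transcribed by stalled E. coli RNA polymerase on Illumina chips. A doubling series of SNAP-549-labelled MS2 coat protein, from 0.7 or 1.5 nM to 3 µM, was applied in Tris-HCl pH 7.5 buffer with KCl, MgCl2, BSA, DTT, tRNA and Tween-20. Each step lasted 0.8–1.5 h at the bottom of the series and 10–20 min at the top. Normalised cluster fluorescence was curve-fitted, giving apparent KD as the per-design median over clusters.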

[1] = input ligand: microRNA oligo, concentration not stated
[2] = Eterna round: R95, input ligand: FMN 200 uM
[3] = Eterna round: R95, input ligand: microRNA oligo, concentration not stated
[4] = Eterna round: R95, input ligand: none

Row | Sequence | apparent KD of MS2 coat protein (input ligand: FMN 200 uM) [nM] | apparent KD of MS2 coat protein (input ligand: none) [nM] | apparent KD of MS2 coat protein [1] [nM] | apparent KD of MS2 coat protein [2] [nM] | apparent KD of MS2 coat protein [3] [nM] | apparent KD of MS2 coat protein [4] [nM]
1 | CGAUCACAUGAGGAUCACCCAUGUCAGGAUAUCGUCCAUAGGAAACAACCCUUCGAGGCGAGAAGGGACAAUCG [Eternabot (Original) Solution 29] (Eterna round: R97, puzzle: Exclusion 1) | 46.9 | 31.1 |  |  |  | 
2 | GGAUUGCGGCAAGGAUAUCUUUGUCAACAUAAAACAUGAGGAUCACCCAUGUGCAUCUUCGUGUGAGAGAAGGUGCGGCGAUCC [Geceretima] (Eterna round: R96, puzzle: Exclusion NG 2) | 1620 | 180 | 248 |  |  | 
3 | AGUACUAACACGAAAGUGUUAGUACAAUAAGCUUGUGAAACAUGAGGAUCACCCAUGUCCUCAUAGGCUCGUCUUAU [salish99_TOv2_r3_054] (puzzle: Sensor v3, turn-off variant 2) |  |  |  | 26.3 | 607 | 18.3
4 | UAUUGCUGAGGAUAUAUAUAGAGCAUUUUCCUCGUGACAGAACAUGAGGAUCACCCAUGUAGAAGGCAGAAGUG [Eternabot (L2) Solution 87] (Eterna round: R97, puzzle: Exclusion 2) | 263 | 192 |  |  |  | 
5 | UUUAAUUUUUUUUUUUUACAAGCUUUUUGCUCGUCUUAUACAUGAGGAUCACCCAUGUAAAUGGGAGGUAAAUUAUC [JMF 71] (puzzle: Sensor v3, turn-off variant 2) |  |  |  | 80.7 | 133 | 113
6 | AAAAUGUAAGGAUAUAGCCGGAACCCAGGGUCAAUACCCGGCUAGAAGGUACAUGAGGAUCACCCAUGUAAGAA [Excls4-VI] (puzzle: Exclusion 4) |  |  |  | 21.6 | 18.9 | 16.5
7 | AUCAGCUCGUGAGGAUAUACAUGCGUGCUUCGGCACGAAUUUAAGAUCACAUGAGGAUCACCCAUGUAGAAGGUACGAGCUGAU [ENG2/3-C3] (Eterna round: R96, puzzle: Exclusion NG 2) | 498 | 275 | 287 |  |  | 
8 | GCAAGUUUUUUGUUUUUUAACAUGAGGAUCACCCAUGUAUUUUUAUAGUAUGUGUGAUUAAGAUCUUGUGGUCUUAG [JR_SV3TOV1_Sub101] (puzzle: Sensor v3, turn-off variant 1) |  |  |  | 59.1 | 92.2 | 62.9
9 | UUAAUUAAUAAUUAAGAUCAUUACAUGAGGAUCACCCAUGUCGAGGAUAUCAGCUCGUGUAGAGCUGAGAAGGCGACAAAUUAU [ExNG3/13-B3] (Eterna round: R96, puzzle: Exclusion NG 3) | 586 | 633 | 268 |  |  | 
10 | GUGUUGUAUGUAGGAUAUGCAUACUGUUAGUAUGCAGAAGGACAUGAGGAUCACCCAUGUAUAUUAUUAUUAUAUAUCAUACAU [MOD of Hoglahoo's Title] (Eterna round: R96, puzzle: Exclusion NG 1) |  |  | 15.2 |  |  | 
11 | AAUUUACAUGAGGAUCACCCAUGUGAGGAUAUAUAUAUAUAUUUGUUAUUGUAUGUUUGUAGAAGGCGCGUGAU [JR_Exc1_Sub033] (Eterna round: R97, puzzle: Exclusion 1) | 33 | 39.2 |  |  |  | 
12 | UUUUGGCAGGCAAUUAUUAACAUGAGGAUCACCCAUGUGCAUCCAAAAUUACUUUUAGAUCAAGCUCGUCUUAUAUA [JR_STOV1_Sub087] (Eterna round: R97, puzzle: Sensor, turn-off variant 1) | 29.9 | 35.1 |  |  |  | 
13 | GUAACAACUAGAGGAUAUCAGCACGUGUAGUGCUGAGAAGGCUAGAGUUACAUGAGGAUCACCCAUGUCUAGAGAUCAUUAAUU [ENG1/13-A3] (Eterna round: R96, puzzle: Exclusion NG 1) | 142 | 69.3 | 52.9 |  |  | 
14 | ACAUGUAUUGCAGGAUAUGGGACACAUGAGGAUCACCCAUGUGACUACAUGUCAUACCAAGCGUCUCAGAAGGGUAUGUACAUG [Ex NG2 #38] (Eterna round: R96, puzzle: Exclusion NG 2) | 21.3 | 18.5 | 15.8 |  |  | 
15 | AAGUUGUGAGGAUAUACACAUCGUGCGGAAAGAUCCUUGUCACAUGAGGAUCACCCAUGUAGAAGGCGCGGUAU [Eternabot (L1) Solution 94] (Eterna round: R97, puzzle: Exclusion 2) | 530 | 740 |  |  |  | 
16 | GUUCCGCGAGGAUAUACAGACGGGUCCAAAACGUGUCUCGGACUUGAGGAUCACCCAAGUAGAAGGCGUUUCAG [salish99_ex2_r4_622] (Eterna round: R97, puzzle: Exclusion 2) | 20.4 | 22.1 |  |  |  | 
17 | ACUAUUAGAGGAUAUACAGUUUAUUACAUGAGGAUCACCCAUGUUCUUCAAUGUAUAUAAGUAGAAGGCUAAGGAA [EX-5 Malc#3] (puzzle: Exclusion 5) |  |  |  | 114 | 45.9 | 38.2

Row | Sequence | apparent KD of MS2 coat protein (input ligand: FMN 200 uM) [nM] | apparent KD of MS2 coat protein (input ligand: none) [nM] | apparent KD of MS2 coat protein [1] [nM] | apparent KD of MS2 coat protein [2] [nM] | apparent KD of MS2 coat protein [3] [nM] | apparent KD of MS2 coat protein [4] [nM]
18 | CAGUACUGAGGAUAUACAUGAGGAUCACCCAUGUGUUCCAGCUAGGAAACUGGCAAAAGUAGAAGGCAGUACUG [salish99_ex3_r3_070] (puzzle: Exclusion 3) |  |  |  |  | 21.6 | 
19 | GGAUCAUAUGUCAGGAUAUGCUGGUCCUUGGAUCAGCAGAAGGGACAUGAGGAUCACCCAUGUCAUGAAGAUCC [Eli bmx4 4.79] (Eterna round: R97, puzzle: Brourd's mod of Exclusion 4) | 203 | 28.3 |  |  |  | 
20 | AACUCUGAGAAGGAUAUUCAAUGGGAAACGAUAGAAGAAGGUUUCACAUGAGGAUCACCCAUGUCAAAUAGUGA [EX6 #72] (Eterna round: R97, puzzle: Exclusion 6) | 178 | 173 |  |  |  | 
21 | ACAUGAGGAUCACCCAUGUCAGGCGGGUCCUCUCCGGCUGUUGAGGAUAUAGUUCGGUAUCCGCGCUAGAAGGUGAGGGCCGGC [Aenatbe mod 21] (Eterna round: R96, puzzle: Exclusion NG 3) | 15.1 | 17.1 | 9.99 |  |  | 
22 | ACUUACUGAGGAUAUACAUAGAUUUACAUGAGGAUCACCCAUGUUCCUCUUUGUAUAAAUGUAGAAGGCAGAAGAA [Mat - Exclusion 5 - JL Mod - D58] (Eterna round: R97, puzzle: Exclusion 5) | 177 | 93.6 |  |  |  | 
23 | CUGGUGUGAGGAUAUCAGGGCACGCCCAAGGGCGUACCAAAUGAGAAGGCACAUGAGGAUCACCCAUGUGGGAC [Lasoena] (puzzle: Exclusion 4) |  |  |  |  | 32 | 
24 | CCGGUGUGAGGAUAUCGUGGCUUGCAGGAAACGCUAAGUCGCGAGAAGGCACAUGAGGAUCACCCAUGUGUAUC [Eternabot (L2) Solution 54] (Eterna round: R97, puzzle: Exclusion 4) | 62.8 | 24.7 |  |  |  | 
25 | GAUCAACAUGAGGAUCACCCAUGUGAGGAUAUGUAUCAUAGAUCUUCGGAUCUAUGAUACAGAAGGCAUGUGAA [Ex1-3: 101] (puzzle: Exclusion 1) |  |  |  |  | 67.8 | 
26 | CUUUAGUGAGGAUAUGUGGCUUCGAUCGUGAGAUCGAGGCUACAGAAGGCACAUGAGGAUCACCCAUGUUCCUC [jl-ex4-4.01 salish99 mod] (Eterna round: R97, puzzle: Exclusion 4) | 464 | 34.1 |  |  |  | 
27 | UCGUGGUAAAUCAGGUGAUGUCUGAUAGGAUGGACUUUGACAUGAGGAUCACCCAUGUUGCUUUUUGCCCGUCUUAA [JR_SV3TOV2_Sub044] (puzzle: Sensor v3, turn-off variant 2) |  |  |  | 16.1 | 27.3 | 15.2
28 | UUAUUAUAUGUAGGAUAUGCGUAUUAUUGUUAUGCAGAAGGACAUGAGGAUCACCCAUGUAUAUUAUUGUUAUAUAUUGUAUAU [Title] (Eterna round: R96, puzzle: Exclusion NG 1) | 28.9 | 21.7 | 19.8 |  |  | 
29 | UAGUUCUGAGGAUAUUCUCCAAAGCACAUGAGGAUCACCCAUGUCCAGUUAUGGCUUUCUGAAGAAGGCAGUCUUA [Eternabot (L2) Solution 49] (Eterna round: R97, puzzle: Exclusion 5) | 87.9 | 36.7 |  |  |  | 
30 | AAAGGGCGUGUGAGGAUAUCGACCCGACUUCCAGUCGAGAAGGCACAUGAGGAUCACCCAUGUGAUGACAGCGA [BmEX4 B.8] (Eterna round: R97, puzzle: Brourd's mod of Exclusion 4) | 38.4 | 16.2 |  |  |  | 
31 | GCGCCAUCGUGAGAUGGCGUAAUUACAUGAGGAUCACCCAUGUAGGAUAUCGAUUGCUUUGCAGUCGAGAAGGACAUGAUAAUU [JL ENG3 3.80] (Eterna round: R96, puzzle: Exclusion NG 3) | 104 | 33.7 | 25 |  |  | 
32 | AAAUAACAAGCGAGAUCCUACAUGAGGAUCACCCAUGUGCUCGUCUUAUUAAGUACUAUCACGAAAGUGAUAGUACA [Mat - Sensor v3 - turn-off var 1 - Eli Mod - D66] (puzzle: Sensor v3, turn-off variant 1) |  |  |  | 18.4 | 239 | 18.4
33 | GGCGGGACAGGAUAUCUAGCACUAAACAUGAGGAUCACCCAUGUGGUGGUCGCAGGUGUCAGAGAAGGGUCAAAAG [Atenabe] (puzzle: Exclusion 5) |  |  |  | 193 | 616 | 1480
34 | UAAAAGAAGGUCAGGAUAUGUAGUGAGCAAUCAGGACAGAAGGGACAUGAGGAUCACCCAUGUAACAGGGUAAA [Eninares] (puzzle: Brourd's mod of Exclusion 4) |  |  |  | 104 | 44.6 | 43.1
